This assay deals with human amyloid Aβ40 (human) (UniProt P05067).

“human plasminogen purified from the plasma of human donors (enzyme)” displayed an amount of Aβ40 left (Tricine-SDS-PAGE, quantitative scanning; solvent control defined as 100%) after 3 h at 37 °C in rabbit cerebrospinal fluid of 74.8%.
